Assay results as given in US9150647 (KANCERA, dated 2015).
Blank lines part the entries; values can stand above or below the molecule they belong to.

Tests used:
[1] = target: human Ror1 (receptor tyrosine kinase ROR1, 937 amino acids, 105 kDa) (human) (UniProt Q01973); assay: flow cytometry, surface staining of CD19+ cells of patient CLL-6
[2] = target: human Ror1 (receptor tyrosine kinase ROR1, 937 amino acids, 105 kDa) (human) (UniProt Q01973); assay: flow cytometry, surface staining of CD19+ cells of patient CLL-16
[3] = target: human Ror1 (receptor tyrosine kinase ROR1, 937 amino acids, 105 kDa) (human) (UniProt Q01973); assay: flow cytometry, surface staining of CD19+ cells of patient CLL-3
[4] = target: human Ror1 (receptor tyrosine kinase ROR1, 937 amino acids, 105 kDa) (human) (UniProt Q01973); assay: flow cytometry, surface staining of CD19+ cells of patient CLL-11
[5] = target: human Ror1 (receptor tyrosine kinase ROR1, 937 amino acids, 105 kDa) (human) (UniProt Q01973); assay: flow cytometry, surface staining of cells of patient CLL-6
[6] = target: human Ror1 (receptor tyrosine kinase ROR1, 937 amino acids, 105 kDa) (human) (UniProt Q01973); assay: flow cytometry, surface staining of cells of patient CLL-4
[7] = target: human Ror1 (receptor tyrosine kinase ROR1, 937 amino acids, 105 kDa) (human) (UniProt Q01973); assay: flow cytometry, surface staining of CD19+ cells of patient CLL-12
[8] = target: human Ror1 (receptor tyrosine kinase ROR1, 937 amino acids, 105 kDa) (human) (UniProt Q01973); assay: flow cytometry, surface staining of cells of patient CLL-12
[9] = target: human Ror1 (receptor tyrosine kinase ROR1, 937 amino acids, 105 kDa) (human) (UniProt Q01973); assay: flow cytometry, surface staining of cells of patient CLL-18
[10] = target: human Ror1 (receptor tyrosine kinase ROR1, 937 amino acids, 105 kDa) (human) (UniProt Q01973); assay: flow cytometry, surface staining of CD19+ cells of patient CLL-2
[11] = target: human Ror1 (receptor tyrosine kinase ROR1, 937 amino acids, 105 kDa) (human) (UniProt Q01973); assay: flow cytometry, surface staining of cells of patient CLL-1
[12] = target: human Ror1 (receptor tyrosine kinase ROR1, 937 amino acids, 105 kDa) (human) (UniProt Q01973); assay: flow cytometry, surface staining of CD19+ cells of patient CLL-17
[13] = target: human Ror1 (receptor tyrosine kinase ROR1, 937 amino acids, 105 kDa) (human) (UniProt Q01973); assay: flow cytometry, surface staining of cells of patient CLL-11
[14] = target: human Ror1 (receptor tyrosine kinase ROR1, 937 amino acids, 105 kDa) (human) (UniProt Q01973); assay: flow cytometry, surface staining of cells of patient CLL-15
[15] = target: human Ror1 (receptor tyrosine kinase ROR1, 937 amino acids, 105 kDa) (human) (UniProt Q01973); assay: flow cytometry, surface staining of cells of patient CLL-16
[16] = target: human Ror1 (receptor tyrosine kinase ROR1, 937 amino acids, 105 kDa) (human) (UniProt Q01973); assay: flow cytometry, surface staining of CD19+ cells of patient CLL-9
[17] = target: human Ror1 (receptor tyrosine kinase ROR1, 937 amino acids, 105 kDa) (human) (UniProt Q01973); assay: flow cytometry, surface staining of CD19+ cells of patient CLL-1
[18] = target: human Ror1 (receptor tyrosine kinase ROR1, 937 amino acids, 105 kDa) (human) (UniProt Q01973); assay: flow cytometry, surface staining of CD19+ cells of patient CLL-4
[19] = target: human Ror1 (receptor tyrosine kinase ROR1, 937 amino acids, 105 kDa) (human) (UniProt Q01973); assay: flow cytometry, surface staining of CD19+ cells of patient CLL-5
[20] = target: human Ror1 (receptor tyrosine kinase ROR1, 937 amino acids, 105 kDa) (human) (UniProt Q01973); assay: flow cytometry, surface staining of CD19+ cells of patient CLL-14
[21] = target: human Ror1 (receptor tyrosine kinase ROR1, 937 amino acids, 105 kDa) (human) (UniProt Q01973); assay: flow cytometry, surface staining of CD19+ cells of patient CLL-18
[22] = target: human Ror1 (receptor tyrosine kinase ROR1, 937 amino acids, 105 kDa) (human) (UniProt Q01973); assay: flow cytometry, surface staining of cells of patient CLL-5
[23] = target: human Ror1 (receptor tyrosine kinase ROR1, 937 amino acids, 105 kDa) (human) (UniProt Q01973); assay: flow cytometry, surface staining of cells of patient CLL-14
[24] = target: human Ror1 (receptor tyrosine kinase ROR1, 937 amino acids, 105 kDa) (human) (UniProt Q01973); assay: flow cytometry, surface staining of cells of patient CLL-10
[25] = target: human Ror1 (receptor tyrosine kinase ROR1, 937 amino acids, 105 kDa) (human) (UniProt Q01973); assay: flow cytometry, surface staining of cells of patient CLL-17
[26] = target: human Ror1 (receptor tyrosine kinase ROR1, 937 amino acids, 105 kDa) (human) (UniProt Q01973); assay: flow cytometry, surface staining of cells of patient CLL-7
[27] = target: human Ror1 (receptor tyrosine kinase ROR1, 937 amino acids, 105 kDa) (human) (UniProt Q01973); assay: flow cytometry, surface staining of CD19+ cells of patient CLL-7
[28] = target: human Ror1 (receptor tyrosine kinase ROR1, 937 amino acids, 105 kDa) (human) (UniProt Q01973); assay: flow cytometry, surface staining of cells of patient CLL-3
[29] = target: human Ror1 (receptor tyrosine kinase ROR1, 937 amino acids, 105 kDa) (human) (UniProt Q01973); assay: flow cytometry, surface staining of cells of patient CLL-2
[30] = target: human Ror1 (receptor tyrosine kinase ROR1, 937 amino acids, 105 kDa) (human) (UniProt Q01973); assay: flow cytometry, surface staining of CD19+ cells of patient CLL-8
[31] = target: human Ror1 (receptor tyrosine kinase ROR1, 937 amino acids, 105 kDa) (human) (UniProt Q01973); assay: flow cytometry, surface staining of cells of patient CLL-13
[32] = target: human Ror1 (receptor tyrosine kinase ROR1, 937 amino acids, 105 kDa) (human) (UniProt Q01973); assay: flow cytometry, surface staining of cells of patient CLL-9
[33] = target: human Ror1 (receptor tyrosine kinase ROR1, 937 amino acids, 105 kDa) (human) (UniProt Q01973); assay: flow cytometry, surface staining of CD19+ cells of patient CLL-15
[34] = target: human Ror1 (receptor tyrosine kinase ROR1, 937 amino acids, 105 kDa) (human) (UniProt Q01973); assay: flow cytometry, surface staining of CD19+ cells of patient CLL-10
[35] = target: human Ror1 (receptor tyrosine kinase ROR1, 937 amino acids, 105 kDa) (human) (UniProt Q01973); assay: flow cytometry, surface staining of CD19+ cells of patient CLL-13
[36] = target: human Ror1 (receptor tyrosine kinase ROR1, 937 amino acids, 105 kDa) (human) (UniProt Q01973); assay: flow cytometry, surface staining of cells of patient CLL-8
[37] = target: T1, human Ror1 (receptor tyrosine kinase ROR1, 937 amino acids, 105 kDa) (human, UniProt Q01973 30-937); assay: flow cytometry, surface staining of CLL cells
T1 construct: whole, on cells; Endogenous Ror1 of primary CLL cells; the same entry is used for surface staining and for the 105 kDa band in Western blots of cell lysates; also called Ror1 protein
T1 sequence (Q01973 30-937): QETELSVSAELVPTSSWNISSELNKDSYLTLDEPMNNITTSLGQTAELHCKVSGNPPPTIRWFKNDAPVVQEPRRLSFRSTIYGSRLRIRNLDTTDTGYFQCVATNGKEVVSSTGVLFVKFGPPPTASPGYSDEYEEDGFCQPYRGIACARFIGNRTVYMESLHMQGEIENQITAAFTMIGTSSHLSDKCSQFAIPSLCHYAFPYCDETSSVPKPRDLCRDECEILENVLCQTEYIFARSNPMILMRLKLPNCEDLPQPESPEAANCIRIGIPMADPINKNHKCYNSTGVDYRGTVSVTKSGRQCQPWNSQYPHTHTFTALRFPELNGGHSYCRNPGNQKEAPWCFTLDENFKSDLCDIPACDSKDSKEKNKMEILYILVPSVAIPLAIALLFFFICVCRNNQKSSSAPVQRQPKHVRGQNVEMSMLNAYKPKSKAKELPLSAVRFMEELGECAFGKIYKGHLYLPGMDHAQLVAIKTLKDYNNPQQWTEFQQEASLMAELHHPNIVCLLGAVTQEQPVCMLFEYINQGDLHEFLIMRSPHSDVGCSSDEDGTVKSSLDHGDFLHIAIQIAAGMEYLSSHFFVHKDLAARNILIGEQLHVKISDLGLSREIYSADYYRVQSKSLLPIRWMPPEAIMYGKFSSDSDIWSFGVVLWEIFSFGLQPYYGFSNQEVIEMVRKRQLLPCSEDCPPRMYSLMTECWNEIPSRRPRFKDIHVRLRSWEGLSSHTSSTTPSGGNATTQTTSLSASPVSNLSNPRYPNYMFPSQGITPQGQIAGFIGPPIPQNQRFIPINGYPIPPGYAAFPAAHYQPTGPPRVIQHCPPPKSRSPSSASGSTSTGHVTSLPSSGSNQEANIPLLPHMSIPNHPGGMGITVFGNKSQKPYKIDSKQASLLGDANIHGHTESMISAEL

human Ror1 (receptor tyrosine kinase ROR1, 937 amino acids, 105 kDa) (human), sequence (Q01973 30-937): as above

Freq. (%) of Ror1+ CLL cells (CD19+) [1]: 91%
Freq. (%) of Ror1+ CLL cells (CD19+) [2]: 36%
Freq. (%) of Ror1+ CLL cells (CD19+) [3]: 36%
Freq. (%) of Ror1+ CLL cells (CD19+) [4]: 65%
Ror1 MFI [5]: 35
Ror1 MFI [6]: 20
Freq. (%) of Ror1+ CLL cells (CD19+) [7]: 81%
Ror1 MFI [8]: 15
Ror1 MFI [9]: 33
Freq. (%) of Ror1+ CLL cells (CD19+) [10]: 91%
Ror1 MFI [11]: 13
Freq. (%) of Ror1+ CLL cells (CD19+) [12]: 79%
Ror1 MFI [13]: 11
Ror1 MFI [14]: 19
Ror1 MFI [15]: 18
Freq. (%) of Ror1+ CLL cells (CD19+) [16]: 69%
Freq. (%) of Ror1+ CLL cells (CD19+) [17]: 80%
Freq. (%) of Ror1+ CLL cells (CD19+) [18]: 86%
Freq. (%) of Ror1+ CLL cells (CD19+) [19]: 80%
Freq. (%) of Ror1+ CLL cells (CD19+) [20]: 92%
Freq. (%) of Ror1+ CLL cells (CD19+) [21]: 93%
Ror1 MFI [22]: 26
Ror1 MFI [23]: 45
Ror1 MFI [24]: 10
Ror1 MFI [25]: 20
Ror1 MFI [26]: 14
Freq. (%) of Ror1+ CLL cells (CD19+) [27]: 37%
Ror1 MFI [28]: 10
Ror1 MFI [29]: 25
Freq. (%) of Ror1+ CLL cells (CD19+) [30]: 50%
Ror1 MFI [31]: 14
Ror1 MFI [32]: 20
Freq. (%) of Ror1+ CLL cells (CD19+) [33]: 61%
Freq. (%) of Ror1+ CLL cells (CD19+) [34]: 63%
Freq. (%) of Ror1+ CLL cells (CD19+) [35]: 84%
Ror1 MFI [36]: 20
Molecule: goat anti-Ror1 polyclonal antibody (N-Ror1com) (R&D systems)

binding result [37]: binds
B1: Anti-Ror1 CRD16 (clone 1C11) antibody (antibody, V domains shown)
VH: EVKLQESGAELARPGASVKMSCKASGYTFTSYTMHWVKQRPGQGLEWIGYINPSSGYTEYNQKFKDKTTLTADKSSSTAYMQLSSLTSGDSAVYYCARRVLWLRRGDYWGQGTILTVSA
VL: EVLITQTPSSLSASLGERVSLTCRASQDIGSSLNWLQQEPDGTIKRLIYATSSLDSGVPKRFSGSRSGSDYSLTISSLESEDFVDYYCLQYASSPYTFGGGTKLELK
notes: Mouse monoclonal antibody; also called Ror CRD (IgM)

binding result [37]: binds
B2: Anti-Ror1 Ig24 (clone 2A4) antibody (antibody, IgM, V domains shown)
VH: EVKLQQSGPELVKPGASVKISCKTSGYTFTEYTMHWVKQSHGKSLEWIGGINPNNGGTSYNQKFKGKATLTVDKSSSTAYMELRSLTSEDSAVYYCALQGFAYWGQGTPLTVSS
VL: EIEITQTPALMSASPGEKVTMTCSASSSVSYMYWYQQKPRSSPKPWIYLTSNLASGVPARFSGSGSGTSYSLTISSMEAEDAATYYCQQWSSNPYTFGGGTRLELK
notes: Mouse monoclonal antibody; also called Ror Ig24 (IgM)
